Changes are numbered by the printed parent chain. Where two headings read alike, the source gives them in different places. Each block holds one binder with its values, some of them ahead of it.
Columns and labels:
[1] = target: huCD47-D1-his (recombinant human CD47 extracellular region D1 with C-terminal His tag) (human (homo sapiens)) (UniProt Q08722); test: SPR BIAcore, against hS2C3 as reference
[2] = target: hCD47 mutant E35A (human (homo sapiens)) (UniProt Q08722); test: SPR BIAcore, against natural hCD47 as reference
[3] = target: hCD47 mutant Q1A (human (homo sapiens)) (UniProt Q08722); test: SPR BIAcore, against natural hCD47 as reference
[4] = target: huCD47-D1-his (recombinant human CD47 extracellular region D1 with C-terminal His tag) (human (homo sapiens)) (UniProt Q08722); test: SPR BIAcore, by the method of Example 3 (antibody captured, huCD47-D1-his analyte)
[5] = target: hCD47-mFc (human CD47 extracellular region D1 fused to mouse IgG2a Fc) (human (homo sapiens)); test: competition ELISA by the method of Example 3 (hCD47-mFc coated, hCD172a-D1M1-His as competitor)
[6] = target: hCD47-mFc (human CD47 extracellular region D1 fused to mouse IgG2a Fc) (human (homo sapiens)); test: as above; remark: listed apart in the source

fold improvement of affinity over hS2C3 [1]: 5 fold | fold increase of affinity against natural hCD47 [2]: 4 fold | fold decrease of affinity against natural hCD47 [3]: 100 fold | Kd [4]: 2.32 nM | koff [4]: 0.00193 s⁻¹ | kon [4]: 833000 M⁻¹ s⁻¹ | IC50 [5]: 4.25 nM | IC50 [6]: < 5 nM
B1: H10C7+L26A6 (affinity-matured variant of hS2C3) (antibody, part only; not given: constant regions, V domains shown, part only)
VH: QVQLVQSGAEVKKPGASVKVSCKASGYTFTDYYMHWVRQAPGQRLEWMGWIYPGSGNTRYSQKFKDRVTMTRDTSTSTVYMELSSLRSEDTAVYYCARREEDYFDYWGQGTLVTVSS

Kd [4]: 1.83 nM | koff [4]: 0.0017 s⁻¹ | kon [4]: 930000 M⁻¹ s⁻¹ | IC50 [5]: 3.52 nM | IC50 [6]: < 5 nM
B2: H11E5+L26A6 (affinity-matured variant of hS2C3) (antibody, part only; not given: constant regions, V domains shown, part only)
VH: B1 VH with G54S, R59K, S61A

— patent CN108503708A
